# T1: Merkel cell polyomavirus T antigen (common to large and small T antigen) peptide on HLA-A*02:01 (human)
# T1 peptide: KLLEIAPNC
# B1: MCC1H (TCR, V domains shown)
# Valpha: QQQVKQSPQSLIVQKGGISIINCAYENTAFDYFPWYQQFPGKGPALLIAIRPDVSEKKEGRFTISFNKSAKQFSLHIMDSQPGDSATYFCAVPNTGNQFYFGTGTSLTVIP
# Vbeta: GAGVSQSPRYKVAKRGQDVALRCDPISGHVSLFWYQQALGQGPEFLTYFQNEAQLDKSGLPSDRFFAERPEGSVSTLKIQRTQQEDSAVYLCASSLIAGLSYEQYFGPGTRLTVT
# B2: X389-8 (TCR, V domains shown)
# Valpha: RKEVEQDPGPFNVPEGATVAFNCTYSNSASQSFFWYRQDCRKEPKLLMSVYSSGNEDGRFTAQLNRASQYISLLIRDSKLSDSATYLCVVTGTGGFKTIFGAGTRLFVKA
# Vbeta: GEEVAQTPKHLVRGEGQKAKLYCAPIKGHSYVFWYQQVLKNEFKFLISFQNENVFDETGMPKERFSAKCLPNSPCSLEIQATKLEDSAVYFCASSSMSIAAGNTGELFFGEGSRLTVL
# B3: MCC1: patient-derived class I high avidity MCPyV T antigen KLL-specific TCR, codon optimized and transduced into T cells (protein)
# alpha: RKEVEQDPGPFNVPEGATVAFNCTYSNSASQSFFWYRQDCRKEPKLLMSVYSSGNEDGRFTAQLNRASQYISLLIRDSKLSDSATYLCVVATYSGGGADGLTFGKGTHLIIQPDIQNPDPAVYQLRDSKSSDKSVCLFTDFDSQTNVSQSKDSDVYITDKCVLDMRSMDFKSNSAVAWSNKSDFACANAFNNSIIPEDTFFPSPESSCDVKLVEKSFETDTNLNFQNLSVIGFRILLLKVAGFNLLMTLRLWSS
# beta: DAGITQSPRYKITETGRQVTLMCHQTWSHSYMFWYRQDLGHGLRLIYYSAAADITDKGEVPDGYVVSRSKTENFPLTLESATRSQTSVYFCASSSGNPSTDTQYFGPGTRLTVLDLKNVFPPEVAVFEPSEAEISHTQKATLVCLATGFYPDHVELSWWVNGKEVHSGVCTDPQPLKEQPALNDSRYCLSSRLRVSATFWQNPRNHFRCQVQFYGLSENDEWTQDRAKPVTQIVSAEAWGRADCGFTSESYQQGVLSATILYEILLGKATLYAVLVSALVLMAMVKRKDSRG
# B4: X389-6 (TCR, V domains shown)
# Valpha: ILNVEQSPQSLHVQEGDSTNFTCSFPSSNFYALHWYRWETAKSPEALFVMTLNGDEKKKGRISATLNTKEGYSYLYIKGSQPEDSATYLCAWNTDKLIFGTGTRLQVFP
# Vbeta: DAGVIQSPRHEVTEMGQEVTLRCKPISGHNSLFWYRQTMMRGLELLIYFNNNVPIDDSGMPEDRFSAKMPNASFSTLKIQPSEPRDSAVYFCASSLAGDRSFGPGTRLTVT
# Key:
# HLA-A*02 = HLA-A*02 (Homo sapiens, UniProt P04439, D140Y/D185E/D98H/E176V/E277Q/G131W/G231S/I119V/I121R/I166T/I218V/L300P/L318F/N151K/N90K/P208A/P217A/Q86G/Q94H/R138H/R169H/T345S); experiment: HLA-A*02 binding prediction (ANN, Immune Epitope Database Analysis Resource); conditions: KLL epitope versus homologs of other polyomaviruses
# Text: Residues at positions 15, 18 and 20-22 (underlined) are highly divergent.
# MCC = experiment: Clinical trial: avelumab plus MCPyV-specific T cells and HLA-upregulation (NCT02584829); conditions: avelumab in addition to MCPyV-specific T cells and HLA-upregulation
# [1] = biological target: T1, Merkel cell polyomavirus T antigen …; experiment: binding, other
# [2] = test system: peptide loaded HLA-A*02:01 K562 cells; experiment: Proliferation of transduced T cells over 72 hours; format: cell-based; conditions: transduced CD8+ T cells
# [3] = test system: HLA-A*02:01 fibroblast cell lines transduced with MCPyV LT antigen; experiment: 4 hour chromium release assay, LT antigen transduced targets; format: cell-based; conditions: transduced CD8+ T cells
# KLL-tetramer = KLL-tetramer staining of MCC1-transduced T cells after expansion; format: binding; conditions: CD8+ and CD4+ T cells transduced with codon-optimized TCR, expanded in culture for two weeks
# [4] = test system: peptide loaded HLA-A*02:01 K562 cells; experiment: Effector cytokine secretion (IFNγ, IL-2, TNF) of transduced T cells; format: cell-based
# Text: (A) CD8 T cells were successfully transduced with codon-optimized MCC-specific TCR (MCC1).
# The polynucleotide of one of the patient-derived class I high avidity TCR clones (MCC1) was codon optimized and transduced into CD8+ T and examined for their ability to activate […].
# [5] = test system: peptide loaded HLA-A*02:01 K562 cells; experiment: 4 hour chromium release assay, peptide loaded targets; format: cell-based; conditions: transduced CD8+ T cells
molecule,measurement,setting,value
KLLEIAPNC [MCPyV],predicted to bind to HLA-A*02 better than homologous peptides,HLA-A*02,approximately 100 ×
avelumab,objective response,MCC; 5 MCC patients,80%
same,duration of complete responses,MCC,> 1 year
same,toxicities with the addition of avelumab,MCC,no increased toxicities
same,complete responses (CRs),MCC; of 5 MCC patients,3 patients
B1,binding result,[1],recognises
B2,binding result,[1],recognises
B3,proliferation,[2],readily proliferate
same,specific killing of MCPyV LT antigen transduced targets,[3],specifically killed
same,tetramer positivity after expansion,KLL-tetramer,remained tetramer positive
same,"maximum percentage of transduced cells that secrete IFNγ, IL-2 and TNF","[4]; saturating levels of peptide (5 μg/mL), CD4+ versus CD8+ T cells",similar
same,sensitivity to engage cytokine secretion,[4]; transduced CD4+ T cells,reduced sensitivity
same,effector cytokine production,[4]; transduced CD8+ T cells,make effector cytokines
same,specific killing of peptide loaded targets,[5],specifically killed
B4,binding result,[1],recognises
